Results taken from the supplement of paper PMC10567573.
± gives the standard deviation.

Assay: protein stability index of a GFP-peptide fusion (GPS, HEK-293T) (PSI 1-6); higher = more stable
[1] = treatment: DMSO, c terminus: a fixed tail appended
[2] = treatment: MLN4924 1 uM, 8 h, c terminus: a fixed tail appended
[3] = treatment: DMSO, c terminus: native
[4] = treatment: MLN4924 1 uM, 8 h, c terminus: native
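Also: 24-mer peptide tiles fused after GFP, lentivirally expressed, FACS-sorted into six equal bins by GFP/DsRed ratio, decoded by Illumina sequencing, PSI is the read-weighted mean bin number.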

Sequence	protein stability index [1]	protein stability index [2]	protein stability index [3]	protein stability index [4]
PIMAKEGQLYAMELQGFWMDIGQP [GMPPB]	2.23 ± 0.25	2.14 ± 0.31	–	–
QDLCGVSTCDTLGMADVGTVCDPA [ADAMTS4]	5.07 ± 0.25	5.25 ± 0.26	–	–
EELYKEIDGVATTRYSVAGLSPYS [PTPRD]	3.14 ± 0.18	3.36 ± 0.22	–	–
RHWHRPVLMAVSVHSERKLLPLVT [SCNN1D]	2.23 ± 0.37	2.11 ± 0.26	–	–
LLKAGADVNKTDHSQRTALHLAAQ [INVS]	4.11 ± 0.33	4.09 ± 0.17	–	–
MTGRVCRGCGGTDIELDAARGDAV [BRF1]	3.65 ± 0.12	3.77 ± 0.18	–	–
TGTALRFRVLCTAPAKYTVFDAEG [MOSPD3]	2.49 ± 0.95	2.54 ± 0.41	–	–
RRGGGPVFPAPVVGSGGATSGKLL [ZBTB22]	4.104 ± 0.027	4.33 ± 0.29	–	–
LNDRLASYLDKVRALEEANTELEV [KRT17]	4.03 ± 0.11	4.17 ± 0.17	–	–
ITTKIFWGGKAETERGLSRKHIIE [KCNAB2]	2.65 ± 0.29	2.89 ± 0.33	–	–
FALGLGFGGVIAFSSYNKQDNNCH [SLC6A17]	2.01 ± 0.4	2.44 ± 0.52	–	–
RTMDIPRSVQNFRFFASSSLHHTS [ALDH8A1]	2.43 ± 0.15	2.62 ± 0.2	–	–
AAPFRFVARPVRFPREHQFFEDGD [ZNF511]	2.85 ± 0.56	3.28 ± 0.62	–	–
VCYTACATLKGPDSHYGTKGLKKV [BTBD1]	3.06 ± 0.42	3.21 ± 0.23	–	–
VDCTEIFGGNPRFLSLHRAHLGEE [ZNF263]	3.11 ± 0.4	3.24 ± 0.25	–	–
EQQHYFNTPFQLSIAPPEAEGVVL [PPTC7]	3.29 ± 0.38	3.56 ± 0.43	–	–
NGSGDMIFEGNSEKEIPVLNELPV [CPXM2]	4.79 ± 0.34	5.01 ± 0.25	–	–
SQKVPLRRMCFVDPVRQCAECALV [ZFYVE21]	2.21 ± 0.2	2.29 ± 0.23	–	–
KQKVSRIERSSSFSSITDSTMSLN [DVL3]	4.27 ± 0.049	4.43 ± 0.16	–	–
WCSVAYWEHRTRVGRLYAVYDQAV [SMAD6]	2.44 ± 0.43	2.18 ± 0.16	–	–
LYLIAKRNRKLKCTFSLTHPANRS [SLC22A15]	2.49 ± 0.41	2.41 ± 0.17	–	–
HYMEENLMDGGDLPSVTDIRRPRL [PLK2]	4.15 ± 0.16	4.22 ± 0.13	–	–
MDPQNQHGSGSSLVVIQQPSLDSR [SPRY1]	4.69 ± 0.096	4.65 ± 0.13	–	–

Sequence	protein stability index [1]	protein stability index [2]	protein stability index [3]	protein stability index [4]
ACSAWLCPGLRLPGSLAGRRAGPA [AUH]	2.2 ± 0.31	2.04 ± 0.9	–	–
RFLDYEMQNSNECKRNFVAVYDGS [NETO1]	2.96 ± 0.24	3.31 ± 0.85	–	–
PTGPRRGRDELGGGRRPGTSPALL [CDKN1A]	4.624 ± 0.031	4.53 ± 0.061	–	–
PNFVKDLEEDLYELFKKDPGFDRG [PI4K2A]	3.79 ± 0.081	3.72 ± 0.32	–	–
NNIMKCRSRYDGHRIWMYNCHIGG [LOXL2]	2.5 ± 0.69	2.33 ± 0.42	–	–
EDSSRDIREALHELLCCTNVSTKE [INTS4]	3.75 ± 0.31	3.98 ± 0.25	–	–
FMRTDNTCVNLLLEASNYQMMPYM [KLHL13]	2.46 ± 0.58	2.24 ± 0.36	–	–
HLGCMHYTVRAPVGVAGLISPWNL [ALDH8A1]	2.48 ± 0.97	2.31 ± 0.64	–	–
FFFAVLHAIYSLSYPMRRSYRYKL [STEAP1]	2.31 ± 0.4	2.43 ± 0.53	–	–
EKRPLFLAPDFDRWLDESDAEMEL [HACD3]	4.45 ± 0.11	4.64 ± 0.068	–	–
LYLEEIADRIIEVDMECQTDAFLD [RSPH3]	2.44 ± 0.74	2.59 ± 0.28	–	–
QYPAGTQGEQLEVPERLLVVLDME [SPSB2]	3.82 ± 0.45	3.69 ± 0.19	–	–
GSSRPCLDFLQEVTRQPRNLQDLC [ASB7]	3.9 ± 0.31	3.97 ± 0.23	–	–
RQPPPPAPQHPQPGSQALPAPALA [FBXO28]	4.45 ± 0.23	4.74 ± 0.16	–	–
RSLQDGTREGFGHSTSLKVPLARS [LCOR]	4.38 ± 0.27	4.37 ± 0.12	–	–
KQQENATSCSLELIGDLIGHSSSV [WDR41]	3.02 ± 0.37	3.17 ± 0.11	–	–
VKCFNDLKAEELLLKIHEVSTVSH [CASP6]	2.23 ± 0.24	2.44 ± 0.16	–	–
ELQRTKQEVLSLRRENSTLDVECH [SASS6]	4.02 ± 0.33	3.93 ± 0.2	–	–
QVHQGIKGMVLDENYNNLANAVIS [CPN1]	2.52 ± 0.23	2.62 ± 0.34	–	–
RMSYQDPAQLSCLPYLEHVGHNHT [NFE2L1]	2.98 ± 0.2	3.12 ± 0.28	–	–
GILERYWLSSRAAAIKVNDSVPFH [MYORG]	2.02 ± 0.42	1.78 ± 0.28	–	–
IRKEMKLLEQAGSLKGSLSVEEQL [CRYL1]	4.54 ± 0.53	4.372 ± 0.012	–	–
ILKIRHGWEDVTKINKTEICSQL [STEAP1]	–	–	2.42 ± 0.57	2.2 ± 0.21

Sequence	protein stability index [1]	protein stability index [2]	protein stability index [3]	protein stability index [4]
SEMLDITMKESLTTREIRRQEAIY [NET1]	3.75 ± 0.18	3.91 ± 0.33	–	–
MTSSSAYYYTKVMSELFLHTPSDT [PKD2L1]	2.51 ± 0.28	2.16 ± 0.28	–	–
HLTRHQRTHTGEKPYKCTLCGENF [ZNF263]	3.36 ± 0.53	3.45 ± 0.51	–	–
YWGSPEEQSLLSRWNPWSTEVPYA [TPRG1]	2.09 ± 0.14	2.23 ± 0.28	–	–
GVYGLQRNLLVENIIDIYKQESTR [TRIM55]	2.61 ± 0.47	2.95 ± 0.49	–	–
EDSCAELGESKEHMESRMVTETEE [SDE2]	5.7 ± 0.18	5.63 ± 0.3	–	–
SGLIQTVFISSYMVLAPVFGYLGD [SPNS1]	3.5 ± 0.3	3.16 ± 0.22	–	–
CLKVGMRREAVQRGRMPPTQPTHG [NR2F2]	3.59 ± 0.27	3.71 ± 0.32	–	–
QSGGRLRRPVNVPLDMFSEEIKFY [KCNA1]	2.52 ± 0.28	2.75 ± 0.28	–	–
ETPNSLNTTVIPNGSMAMGTVPGQ [LYSMD4]	4.43 ± 0.19	4.42 ± 0.23	–	–
RLLGSARPELGAALGIYGAPYAAA [IRX6]	2.27 ± 0.42	2.44 ± 0.47	–	–
DSNMPHFQTLQAIVSHFQKLFDVP [CEP70]	2.38 ± 0.1	2.47 ± 0.22	–	–
ALLNDHIYVVGGFDGTAHLSSVEA [KLHL12]	2.68 ± 0.32	3 ± 0.38	–	–
IQDNGTGIRKEDLDIVCERFTTSK [MLH1]	4.17 ± 0.2	4.46 ± 0.33	–	–
YKRQEESGAAASLNVDAAVQQWLQ [CHIT1]	4.22 ± 0.086	4.1 ± 0.094	–	–
LFAGPHSTLTPPCSPPEDGLCPH [SNX8]	–	–	3.79 ± 0.52	3.85 ± 0.22
PYKCVQPDCGKAFVSRYKLMRHMA [PLAGL1]	2.23 ± 0.31	2.08 ± 0.21	–	–
SGGYWVGMSTIRPNPGFSMLDFLS [APMAP]	2.1 ± 0.14	2.32 ± 0.97	–	–
EESILERVQQHIESKLLGSNSSRM [MLH1]	3.96 ± 0.15	3.92 ± 0.11	–	–
ISRDRLSSYYKFKLTREVLSLFVQ [ZER1]	2.11 ± 0.52	2.13 ± 0.29	–	–
NPIQKEEDEGVDLSEGSSNEDEDL [SPANXN3]	4.96 ± 0.43	4.95 ± 0.39	–	–
GLPFILRPTSCWQLDWDELETNQQ [M1AP]	2.62 ± 0.056	2.67 ± 0.24	–	–
AKTFHLVNPNGQKQQLVDAFLKLA [FAN1]	2 ± 0.36	2.05 ± 0.17	–	–

Sequence	protein stability index [1]	protein stability index [2]	protein stability index [3]	protein stability index [4]
NFDHFEILRAIGKGSFGKVCIVQK [STK32A]	2.87 ± 0.27	3.02 ± 0.24	–	–
FSVTGGTEEKSSLLMSCLACDTWA [RPAIN]	2.27 ± 0.26	2.27 ± 0.25	–	–
FLRQLPFRGDDGIFDDNFIEERKQ [SNX3]	3.55 ± 0.27	3.82 ± 0.35	–	–
AGFSPDCIMDDAINILQNEKSHQV [INTS4]	4.13 ± 0.12	4.17 ± 0.18	–	–
IEVKTKGGSKYLIYRRYRQFHALQ [NCF4]	2.22 ± 0.35	2.2 ± 0.33	–	–
SETPQETYRKVMNWKETLVFPPEV [STK38L]	3.61 ± 0.53	3.7 ± 0.3	–	–
DENGRPYSPSQYALQYAGDGSVLL [NFE2L1]	3.57 ± 0.39	3.6 ± 0.34	–	–
GWWKRLFTLKEEKPKMYFMTMIVS [ARL6IP1]	2.95 ± 0.66	2.04 ± 0.57	–	–
HLLSWFSPTIIFDNWIPLLWCANI [DHCR7]	2.98 ± 0.18	3.08 ± 0.21	–	–
VTLALFFVLYFLLACWTYGISVPS [CLCN6]	2.95 ± 0.27	2.98 ± 0.19	–	–
PESQFPEFSTSLFSGSLEPVACGS [SRPK2]	4.21 ± 0.26	4.29 ± 0.064	–	–
TFWASWRAFAQIGPARSGFRLETL [MIR22HG]	2.73 ± 0.42	2.47 ± 0.41	–	–
FPAYTQSTASTTSTTNSTAAKPAA [ZNF207]	4.68 ± 0.21	4.81 ± 0.25	–	–
FSEALAEGAVKMGMPSSLAHRIAA [PYCR3]	3.12 ± 0.42	3.06 ± 0.52	–	–
LNELERLSNLVGKPSENHPLHNSG [MED27]	4.06 ± 0.25	4.31 ± 0.24	–	–
DGLLGDNQIMPKAGLLIIVLAIIA [MAGEA3]	3.11 ± 0.91	2.46 ± 0.34	–	–
LLGEETPMAADEGSAEKQAGEAHM [EHMT1]	5.66 ± 0.31	5.57 ± 0.38	–	–
SHGVRNKCLQLLGNLGSLEKSVTK [INTS4]	3.23 ± 0.27	3.28 ± 0.22	–	–
KARGKSGPLFNFDVHDDVRLLSDA [FAM50A]	3.87 ± 0.15	3.81 ± 0.3	–	–
STHLTVHRRIHTGEKPYECQDCGR [ZNF8]	3.9 ± 0.32	4.1 ± 0.52	–	–
